Key:
Experiment in all cases: SPR, antibody captured, C2 as analyte;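 note: biacore at 37 °C, anti-C2 mAbs held by immobilised goat anti-human IgG, C2 alanine or serine mutants injected, double-referenced sensorgrams fitted to a 1:1 kinetic or steady-state model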
human C2 G414A = molecular target: T1, human C2 G414A (human, UniProt P06681 21-752)
T1 sequence: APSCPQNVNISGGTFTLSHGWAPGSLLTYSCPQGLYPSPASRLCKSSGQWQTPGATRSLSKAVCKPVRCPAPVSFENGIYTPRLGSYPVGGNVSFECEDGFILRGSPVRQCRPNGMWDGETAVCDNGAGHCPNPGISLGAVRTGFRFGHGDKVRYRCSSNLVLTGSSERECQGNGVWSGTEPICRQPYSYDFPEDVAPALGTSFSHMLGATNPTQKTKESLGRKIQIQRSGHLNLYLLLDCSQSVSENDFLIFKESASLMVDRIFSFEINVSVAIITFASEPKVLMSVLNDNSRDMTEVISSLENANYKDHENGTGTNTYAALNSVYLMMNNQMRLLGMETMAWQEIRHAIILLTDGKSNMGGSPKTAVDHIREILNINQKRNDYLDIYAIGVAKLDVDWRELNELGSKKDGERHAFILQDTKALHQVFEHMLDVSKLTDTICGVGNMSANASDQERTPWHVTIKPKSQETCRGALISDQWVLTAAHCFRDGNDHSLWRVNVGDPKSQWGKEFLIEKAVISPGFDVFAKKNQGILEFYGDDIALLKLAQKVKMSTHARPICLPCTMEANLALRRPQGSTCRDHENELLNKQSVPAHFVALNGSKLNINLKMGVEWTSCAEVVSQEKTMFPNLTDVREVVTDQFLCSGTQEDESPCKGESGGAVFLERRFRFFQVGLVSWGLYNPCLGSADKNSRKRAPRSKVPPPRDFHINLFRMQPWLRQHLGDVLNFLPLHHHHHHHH

human C2 Q447A = molecular target: T2, human C2 Q447A (human, UniProt P06681 21-752)
T2 sequence: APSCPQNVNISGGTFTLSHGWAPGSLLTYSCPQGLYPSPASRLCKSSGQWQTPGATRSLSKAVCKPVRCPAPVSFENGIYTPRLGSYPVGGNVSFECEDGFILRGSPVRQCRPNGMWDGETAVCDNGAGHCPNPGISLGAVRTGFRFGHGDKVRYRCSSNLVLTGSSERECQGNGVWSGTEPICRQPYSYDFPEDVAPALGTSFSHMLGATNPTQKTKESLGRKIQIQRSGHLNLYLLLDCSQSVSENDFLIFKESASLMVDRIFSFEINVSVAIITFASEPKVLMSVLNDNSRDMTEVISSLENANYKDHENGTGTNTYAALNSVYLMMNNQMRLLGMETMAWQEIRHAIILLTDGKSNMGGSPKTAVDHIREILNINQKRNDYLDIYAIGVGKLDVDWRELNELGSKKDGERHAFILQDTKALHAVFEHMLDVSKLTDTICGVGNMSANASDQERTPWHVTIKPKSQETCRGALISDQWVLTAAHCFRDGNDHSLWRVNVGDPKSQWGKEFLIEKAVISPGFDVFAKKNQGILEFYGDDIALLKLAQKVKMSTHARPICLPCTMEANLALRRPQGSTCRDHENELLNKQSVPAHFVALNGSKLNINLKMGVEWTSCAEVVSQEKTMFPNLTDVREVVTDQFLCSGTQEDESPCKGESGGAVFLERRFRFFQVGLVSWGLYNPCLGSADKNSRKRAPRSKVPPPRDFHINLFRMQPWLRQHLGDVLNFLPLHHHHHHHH

human C2 H331A = molecular target: T3, human C2 H331A (human, UniProt P06681 21-752)
T3 sequence: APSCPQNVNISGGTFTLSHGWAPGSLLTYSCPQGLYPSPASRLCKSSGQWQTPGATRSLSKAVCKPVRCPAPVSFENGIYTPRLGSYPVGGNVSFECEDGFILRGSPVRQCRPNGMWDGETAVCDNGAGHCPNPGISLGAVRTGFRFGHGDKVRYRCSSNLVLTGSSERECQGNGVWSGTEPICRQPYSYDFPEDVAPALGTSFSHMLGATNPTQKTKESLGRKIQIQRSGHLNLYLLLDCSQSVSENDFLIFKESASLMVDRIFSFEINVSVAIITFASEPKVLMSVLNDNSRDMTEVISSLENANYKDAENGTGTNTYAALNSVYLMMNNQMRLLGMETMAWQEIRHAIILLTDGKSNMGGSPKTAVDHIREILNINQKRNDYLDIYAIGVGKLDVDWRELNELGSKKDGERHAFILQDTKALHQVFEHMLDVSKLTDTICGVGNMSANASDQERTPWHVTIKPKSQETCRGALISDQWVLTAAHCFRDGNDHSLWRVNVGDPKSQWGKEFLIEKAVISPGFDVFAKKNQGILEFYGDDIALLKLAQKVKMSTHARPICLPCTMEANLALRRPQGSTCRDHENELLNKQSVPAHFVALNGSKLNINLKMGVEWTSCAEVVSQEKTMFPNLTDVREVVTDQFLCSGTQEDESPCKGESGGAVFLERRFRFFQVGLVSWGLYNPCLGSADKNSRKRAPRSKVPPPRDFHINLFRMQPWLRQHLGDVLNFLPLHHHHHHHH

human C2 E476A = molecular target: T4, human C2 E476A (human, UniProt P06681 21-752)
T4 sequence: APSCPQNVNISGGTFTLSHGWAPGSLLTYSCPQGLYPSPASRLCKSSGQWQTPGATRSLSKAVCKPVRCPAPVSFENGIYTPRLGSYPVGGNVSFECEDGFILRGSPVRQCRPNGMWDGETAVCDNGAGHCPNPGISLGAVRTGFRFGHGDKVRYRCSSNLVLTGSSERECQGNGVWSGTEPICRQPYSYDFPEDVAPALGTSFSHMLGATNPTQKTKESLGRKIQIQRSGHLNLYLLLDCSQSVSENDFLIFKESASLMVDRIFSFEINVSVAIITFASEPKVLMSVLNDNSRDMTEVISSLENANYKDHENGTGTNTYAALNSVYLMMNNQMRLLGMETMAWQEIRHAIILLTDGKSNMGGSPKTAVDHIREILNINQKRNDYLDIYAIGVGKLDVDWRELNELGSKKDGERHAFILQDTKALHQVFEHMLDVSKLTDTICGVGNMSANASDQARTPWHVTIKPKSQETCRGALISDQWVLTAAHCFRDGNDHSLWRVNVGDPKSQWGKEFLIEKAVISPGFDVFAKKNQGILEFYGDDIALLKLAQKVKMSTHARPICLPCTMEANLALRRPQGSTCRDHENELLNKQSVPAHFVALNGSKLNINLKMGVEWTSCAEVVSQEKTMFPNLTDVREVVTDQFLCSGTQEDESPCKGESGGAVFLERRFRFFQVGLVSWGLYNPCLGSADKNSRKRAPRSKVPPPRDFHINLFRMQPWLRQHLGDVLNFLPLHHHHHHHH

B1: RF16-242 (antibody, human IgG4 S228P, lambda, V domains shown)
VH: EVQLLQSGAEVKKPGESLKISCKGSGYSFTSYWIGWVRQMPGKGLEWMGIIYPGDSDTRYSPSFQGQVTISADKSISTAYLQWSSLKASDTAMYYCARRGHYGDYFDYWGQGTLVTVSS
VL: SYELTQPPSVSVSPGQTARITCSGDALPKKYAYWYHQKSGQAPVLVIYEDRRRPSEIPERFSGSSSGTMATLTITGAQVEDEGVYFCYSRDRAGNQRVFGGGTQLTVLG
notes: pH-dependent anti-C2 antibody from a phage display library
Question: With B1 as the binder, how does the Kd (human C2 G414A) read?
Answer: 4.2 nM

Question: And the Kd (human C2 Q447A)?
Answer: 26 nM

Question: What about the Kd (human C2 H331A) of the same binder?
Answer: 191 nM

Question: What about the Kd (human C2 E476A) of the same binder?
Answer: 14 nM

— patent US20220332804A1 (CSL INNOVATION, published 2022)
